Source: paper PMC6013222, “SNPs in inflammatory genes CCL11, CCL4 and MEFV in a fibromyalgia family study” (PLoS ONE, 2018)
Numbering of substitutions follows the chain as printed. Numbers in names are those of the source.

Assays:
[1] = target: T1, Recombinant human CCL4 (MIP-1β), wild type (human), P13236; assay: SEC; Superdex 200 10/30 column, 0.5 mL/min in PBS, UV detection at 214 and 280 nm; details: remark: other sources report otherwise
T1 chain: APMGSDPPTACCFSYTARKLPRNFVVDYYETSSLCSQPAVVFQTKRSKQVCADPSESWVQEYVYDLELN

[2] = target: the molecule itself; assay: as above

B1: Recombinant human CCL4 (MIP-1β), wild type, P13236 24-92 (ligand)
chain: T1 chain
stoichiometry N [1]: 2

B2: Recombinant human CCL4 variant (S80T) (ligand, UniProt P13236 24-92, looked up)
chain: T1 chain with S57T
notes: C-C motif chemokine 4 (CCL4, MIP-1β), human, natural variant Ser80Thr from SNP rs1719152, recombinant; On SEC two broad peaks: a high molecular weight aggregate (>300 kDa) and a 16 kDa dimer; also called varCCL4; variant CCL4; source: bought: Kingfisher Biotech, Inc
stoichiometry N [2]: 2
